# Assay: soluble on expression in E. coli; label from the status in PepcDB or PDB records
row,Sequence,soluble on expression in E. coli
1,MRVVIVGAGLAGLAAAVDLVDAGHRVEIYESRPFVGGKVSSWQDADGNHIEMGLHVFFYNYANLFELMTKVGAIANLLPKEHTHTFINRGGQVGELDFRFPLGAPFNGLKAFFTTRQLSAADKFFNAIALGTSPVVRGLVDYEGAMRQIRALDCMSFAEWFRRHGGSENSLKRLWNPISYALGFIDTEHMSARCMLTIFMMFAAKTTASRLNMLKGSPAEYLLKPLVNYIEARGAKIHLRRRVKEILFRGEDASTWRVEGLVIPRGEALETVTADAYLCACDVPGIQRLIPEAWRSHPTFDNIFKLEAVPVATVQLRFDGWVTELQDPRKQKQVAATGIDNLLYTADADFSCFADLALTSPADYYREGQGSLLQVVLTPGDPFIKASNEEIAQHVLRQVHELFPSSRHLNMTWYSVVKLAQSLYREAPGMDPYRPPQKTPVPNFYLAGSYTQQDYIDSMEGATMSGRQAAQAILAGGHPLEHHHHHH,soluble
2,MAHHHHHHMQNSVGDVINLISKSEIRYEGKLHSINTEENTVSLSNVRIYGTEGRKGGGVEEVPPTEQLFEFIVFRGSDIKDLTVFRDSSSPQARDPAIVEVHAPARGRGGRAAAAAPAASATAASSAATRGSRSFYDEAQPYSRGGGGGRRGGYGAGRYNNNNGGGSNNSNSNRNHRGGYGGRGGSGNYRRNYRDYHTGQDFKPADIGATEKFEGDFDFAKCREEFEKKKSEFEKAKEDAKSHAKAYDKSSFFDTISCDQKEKNNMNRAEMRKADTETFGPEMVSSMRGFRRGRGGRGRYQQR,not soluble
3,SMSVKKPKRDDSKDLALCSMILTEMETHEDAWPFLLPVNLKLVPGYKKVIKKPMDFSTIREKLSSGQYPNLETFALDVRLVFDNCETFNEDDSDIGRAGHNMRKYFEKKWTDTFKVS,soluble
4,SEQSSPGFRQTHLQDLSEATQDVKEENHYLTPRSVLLELDNIIASSDSGESIETDGPDQVSGRIECHYEPMESYFFKETSHESVDSSKEEPQTLPETQDGDLHLQEQGSGIDWCLSPADVEAQTTNDQKGSASLTVVQLSILINNIPDESQVEKLNVFLSPPDVINYLALTEATGRICVSQWEGPRRLGCIFCHGDHLLAVNDLKPQSLEEVSLFLTRSIQKEKLKLTIGRIPNSETFHAASCMCPSKCQSAAPSQLDKPRLNRAPKRSPAIKKSQQKGARE,soluble
5,MGSDKIHHHHHHMARLRVYELARKLNMSPKELLQELEELGVNVKSHMSYVDEEMANIIIDLLEEDNRKAKQPSKPKKEKGEEEVEKEVVEKKKKKKITLKPDELKLDIIAEKIGVPQNKIIQDMFVKRGIALRPGQILKLEEVEQILKEYKIEIEIEEEQQTSVEEVDEFELLEKRYQELYEKEKDKLVPRPPVVTVMGHVDHGKTTLLDRIRSTRVAEREEGGITQSIGAYQVEVNGKKITFIDTPGHELFTEMRARGAQATDIVVLVVAADDGVMPQTIEAYNHAKAANVPIIVAINKIDKPNANVEKTKQELVEKLGLIPEEWGGDTIVVPISARTGQGVDELLEMILLVAEMNEIKCYPEGPARAVIIESKLDKKMGPVASAIVKDGVLKVGDAVVASNTYGRVRNLFDDNMRPIREAYPSQPVMILGFEDVPDVHSNVYVVESAEKAKEIVEKRLQRLEAQKQSRKHINLEELMKMMQEKEKKVLNLILKADTYGSVAALKNAINKLQSKEIELNIVHAGVGEISTSDVMLAAAVDGVILGFRVKVNNQARRLAEQEGVDVRTYSIIYKLVEDLKLALEGMLEPEEVEEVIGHGEIRKVFKISKVGKVAGVQMLDGKADRNGFVRIYRNGQLVFGGKIESLKHYKEDVSVVEAPQECGIKFAGFDDIHEGDELEFYVIRKVKRKPTFVEEQADQEQK,not soluble
6,QKPYKETYGISHITRHDMLQIPEQQKNEKYQVPEFDSSTIKNISSAKGLDVWDSWPLQNADGTVANYHGYHIVFALAGDPKNADDTSIYMFYQKVGETSIDSWKNAGRVFKDSDKFDANDSILKDQTQEWAGSATFTSDGKIRLFYTDFSGKHYGKQTLTTAQVNVSASDSSLNINGVEDYKSIFDGDGKTYQNVQQFIDEGNYSSGDNHTLRDPHYVEDKGHKYLVFEANTGTEDGYQGEESLFNKAYYGKSTSFFRQESQKLLQSDKKRTAELANGALGMIELNDDYTLKKVMKPLIASNTVTDEIERANVFKMNGKWYLFTDSRGSKMTIDGITSNDIYMLGYVSNSLTGPYKPLNKTGLVLKMDLDPNDVTFTYSHFAVPQAKGNNVVITSYMTNRGFYADKQSTFAPSFLLNIKGKKTSVVKDSILEQGQLTVN,soluble
7,AHHHHHHGSIRVRNLSFSYNGRAILRDIAFEVKEGEFLAILGPNGAGKSTLLRCLAKILKCEGEIEICGRNLHEYSRRELSKTIAYVPQRVEPNFLRVFDMVLLGRKPYMGIIPSEEDIKAVERALKTLKIEHLAGRLTKTLSGGELQKVAIARALAQESSIILLDEPTNNLDPRSQVDLMNLLRKLSQAGKTIVTVMHDINLALRFAEKLMFMKNGEVVGIVETKKISPEIIEETFNVKAEIFETPSGVKFCQFY,soluble
8,MGSDKIHHHHHHMTARNILSYSYEEYVEKITAFHGYPAPGVLIGGFMVDLAVKNLPEGILYDAICETRTCLPDAVQLLTPCTFGNGWLTVLPMGLFAVSLYDKFTGEGVRVFLDVEKMGPWQEIRNWFLKLKTKKEQDSERLFKEIREAGPDILELRNVKLKPGFLEKKHKGKIVLCPQCREAYPAQDGELCLSCQGGSPYL,not soluble
9,MGSDKIHHHHHHMSYVAVKGGSTAIRAAHRLVRKRMRGDPDAPEITPRQICEQMHLGVDRVMAEASLYDEDLAARAMLQAQGDMIEAIFLLRAYRATLTRFLDSTPLAMDTMRVQRRISAAFKELPGGQQLGQTYDYSHRLFGYFDRLETKSDIESGKTEVPPEPMTSVMDLLEKEGLMELAAACEPPAENMQQDITRHPLLFPATRAQRLQSLARGDEGFLLSMAYSTQRGYGQNHPFIAELRMGDVTVEITPPELGFPIEIGTITVTECQMINQFQARSPEEAAFTRGYGLVFGHSERKAIAMALVDRALRAGELGEEALSPAQNEQFVLSHCDNVETTGFVEHLKLPHYVDFQSEIQTLRHLHKTAAKDGADRV,not soluble
10,MGSDKIHHHHHHMLNSIMEDKKELLKSLLRQIHEGRDVSELKEQFKDVLASISPLEIPLIEQELVKEGISTREIAKMCDIHVELFRESVEGAFSVEDIPEGHPLHTLFMENREIVKDAEMLALLANTLEREMKGEILEEMESVVAELIKVGHTHYNREEMLIFPYIERRGITAIPNVLWFKHDEIRAALRVLHRLLTTDTGERWEEHIKRVVEKAREVSSAMLDMVFRENNIFYPTLKVLLSEGEWRAIREQEEIIGYYKLKPAEWKSDAKPVHPYEIDTTITAEQLISLPEEVQNLLKGQLLKPDSYEVVREDDLRLDEGYLSQREINAIFKALPFDITFVDSNDRVRFFSGSDRIFARTPSVIGRRVHLCHPPRSVHIVDKILKAFRNGERDFAEFWINMGGRIIHIRYFAVRDEGEYLGTVEVVQDVTEIKRLEGEKRLLGWK,not soluble
11,MAEHEQVNWPYVNTKLKRDPAVEAQIEKLLAKMTIEQKVAQMIQPEIGYLTVEQMRKYGFGSYLNGGNTAPYGNKRADQATWLKYADEMYLAAMDSTLDGIAIPTVWGTDAMHGHSNVYGATLFPHNIGLGAARDTDLIKRIGQATAKEVAATGIEWSFAPTVAVVRDDRWGRTYESYSEDPDLVKRYAGEMVTGIQGDVGADFLKGSNRIATAKHFVGDGGTERGVDRGNTLIDEKGLRDIHSAGYFSAINQGVQSVMASFNSWNGKRVHGDKHLLTDVLKNQLGFDGFVVSDWNAHKFVEGCDLEQCAQAINAGVDVIMVPEHFEAFYHNTVKQVKAGVIAESRINDAVRRFLRAKIRWGVFTKSKPSARPESQHPQWLGAAEHRTLAREAVRKSLVLLKNNESILPIKASSRILVAGKGANAINMQAGGWSVSWQGTDNTNSDFPNATSIFSGLQSQVTKAGGKITLSESGEYTSKPDVAIVVIGEEPYAEWFGDIELLEFQHETKHALALLKQLKADNIPVVTVFLSGRPLWVNKELNASDAFVAAWLPGSEGEGVADVLLTNKQGKTQFDFTGKLSFSWPKYDDQFTLNLNDADYDPLFAYGYGLTYQDNINVPVLSEKTSPKKTVNSDSHPLFVRSLAKNMTWQLADTSTQKVLASGASATSGDKQSLLMQSVNLSYQEDGRGFNWRAQAALSLSYLEPTPLDSKFSTGYLELKMRIDKAPEQGANLQVMCSESNCLRDIDFSSFSQLMADKSWHTLAIPLHCDDSDQAEQPITDALRITSQNLSLAIADVALTIKPSDDSISLTCAKLEHHHHHH,soluble
12,SNAMSKRVLMVVTNHTTITDDHKTGLWLEEFAVPYLVFQEKGYDVKVASIQGGEVPLDPRSINEKDPSWAEAEAALKHTARLSKDDAHGFDAIFLPGGHGTMFDFPDNETLQYVLQQFAEDGRIIAAVCHGPSGLVNATYKDGTPIVKGKTVTSFTDEEEREVGLDVHMPFLLESTLRLRGANFVRGGKWTDFSVRDGNLITGQNPQSSRSTAEKVVAALEERE,soluble
13,MSLGRRAAIYARYSTELQDGRSIDDQVALCREHAARSGLTVVATYDDRAKTSASIFGRDGLARMMEQARARQFDVVIVEALDRLSRDQEDLAHIHKRLSFARIDILTVHEGVADSVSVGLRGLMGTMFLEALKAKTRRGLAGVIRDGRHAGGQTYGYRGVPGEPGKREIVAHEAEIIREIFAAYVEGKSPRTIAGELNARGIAAPRGPKWNASTLNGNPQRGYGILRNPMYDGRLVWNRVTMVRDPDTGRRVNRENPLDARQEVEAEHLRIVPRPLFEAAVRRHAQQAEAVRTGKITKAPPRPFSGLIRCACCGGGMSIHDRCGEAIRIRCSTANESGSCENKARYRLEKIEEAIFLRLRAQLDRPDYLKEFVRVYAEERRRLTETARRDRARLERAAADSRARYMRLVDMMARGLIEGEEADAQVLQAKQAAEIARSELEIASSEDNVVELHPQATAAYTRAIADLSAALQRGDGTFDATSVEALRRIITEITVHPKDEAGDVLVEVRGNMERLLGIGQQIVGGPMVARGGLEPPTPREGHHHHHH,not soluble
14,MTAIRFDHVDVIFGTHTKEALKLLDQGLGRAEILKRTGQVLGVEDACLDVNRGEICVLMGLSGSGKSSLLRCINGLNKVSRGKLLIEHEGSQVDIANCSPATLKAMRTKRIAMVFQKFALMPWLTVAENVGFGLEMQGRPAAERKKLIDEKLELVGLSQWRDKRPDSLSGGMQQRVGLARALAMDGDILLMDEPFSALDPLIRQQLQDELLVLQRQLHKTIVFVSHDLDEALKIGTRIAIMKDGRIIQHGKPEEIVLSPADDYVRTFVAHTNPLNVLCGQSLMRGLDQCIRQNDEICFDQGRDCWIGLSEGDVLKGARQGSNVIDLQRWRQGDPVEKLRREPTLVDVSIRMRDALQIRYQTGHKLVLQEQDRVVGVLGDSELYHALLGKN,not soluble
15,MNLIGKWIVGVGESVLNRMPLVRPIYKSIKQLFESVLKEHSNSFKKVGLIEFPSSGTWAMVFVSSEVKGELAHRFNEMGQQMVAVFLPPTPVPTAGFLLFVPKDKIVMLDMTPEDAAKLLISGGLVAPDFTPPKVIAPVLEHHHHHH,soluble
16,MSESVQSNSAVLVHFTLKLDDGTTAESTRNNGKPALFRLGDASLSEGLEQHLLGLKVGDKTTFSLEPDAAFGVPSPDLIQYFSRREFMDAGEPEIGAIMLFTAMDGSEMPGVIREINGDSITVDFNHPLAGQTVHFDIEVLEIDPALEA,soluble
17,MGSDKIHHHHHHACNTSPREPKAMEANDGSVTTVESNGNKLTVCDLSAVKDTIEVPLSEFVEDCRIVRFETSEEAYFKAWFINATDKHIGIRQGNQDVFKLFDRDGKFLYNVGSVGSGPGEYDTTLYDECIDEKNGHIFFTPFVGKRIMMYDINGQWIKDIPLPMQINKAKIWVNEDGSLSVVHMPFEEGEPLAFRVDTEGNILNQIPATAATKVMNFDGEVFSYRNCGDFDFFHTGIDTLFTYDPAGNKLLPKFTMTFPNMNEKPIHLYYRLPHHFIVTYWGNKGEGGGDVLVDTEKNASSYFRLVNDFYGNLPIPAPGHSFYRGYFIQSLEPGQLIEKIEKQIASGKCSGQDEQKLKELAATLTENDNNVLFIGKVKK,not soluble

# Reference: the DeepSol protein solubility set
